Measurements as given in PMC4658230.

What was measured:
Assay in all cases: cells, lysate or membranes named
[1] = substrate: Nc1ccccc1; conditions: 1 mM NADPH, 37°C, pH 7.4
[2] = substrate: O=[N+]([O-])c1ccc(O)cc1; conditions: 1 mM NADPH, 37°C, pH 7.4
[3] = substrate: C=Cc1ccccc1; conditions: pH 7.4; 37.0 °C
[4] = other: rat liver mitochondria 2 mg/mL
[5] = other: rat liver microsomes 0.5 mg/mL

| Protein | Km [1, 4] | kcat [1, 4] | Km [2, 4] | kcat [2, 4] | Km [3] | Km [1, 5] | Km [2, 5] | kcat [2, 5] |
| --- | --- | --- | --- | --- | --- | --- | --- | --- |
| mtCYP2E1 (Rattus norvegicus) (protein) AVLGITIALLVWVATLLVISIWKQIYNSWNLPPGPFPLPILGNIFQLDLKDIPKSFTKLAKRFGPVFTLHLGSRRIVVLHGYKAVKEVLLNHKNEFSGRGDIPVFQEYKNKGIIFNNGPTWKDVRRFSLSILRDWGMGKQGNEARIQREAQFLVEELKKTKGQPFDPTFLIGCAPCNVIADILFNKRFDYNDKKCLRLMSLFNENFYLLSTPWIQLYNNFADYLRYLPGSHRKIMKNVSEIKQYTLEKAKEHLQSLDINCARDVTDCLLIEMEKEKHSQEPMYTMENVSVTLADLFFAGTETTSTTLRYGLLILMKYPEIEEKLHEEIDRVIGPSRVPAVRDRLDMPYMDAVVHEIQRFINLVPSNLPHEATRDTVFQGYVIPKGTVVIPTLDSLLYDSHEFPDPEKFKPEHFLNENGKFKYSDYFKAFSAGKRVCVGEGLARMELFLLLSAILQHFNLKSLVDPKDIDLSPVTVGFGSIPPQFKLCVIPRS | 10 (7.5 to 12) μM | 52 (49 to 54) pmol/min/pmol CYP2E1 | 28 (24 to 33) μM | 110 (100 to 110) pmol/min/pmol CYP2E1 | 45 (36 to 56) μM |  |  |  |
| erCYP2E1 (Rattus norvegicus) (protein) MAVLGITIALLVWVATLLVISIWKQIYNSWNLPPGPFPLPILGNIFQLDLKDIPKSFTKLAKRFGPVFTLHLGSRRIVVLHGYKAVKEVLLNHKNEFSGRGDIPVFQEYKNKGIIFNNGPTWKDVRRFSLSILRDWGMGKQGNEARIQREAQFLVEELKKTKGQPFDPTFLIGCAPCNVIADILFNKRFDYNDKKCLRLMSLFNENFYLLSTPWIQLYNNFADYLRYLPGSHRKIMKNVSEIKQYTLEKAKEHLQSLDINCARDVTDCLLIEMEKEKHSQEPMYTMENVSVTLADLFFAGTETTSTTLRYGLLILMKYPEIEEKLHEEIDRVIGPSRVPAVRDRLDMPYMDAVVHEIQRFINLVPSNLPHEATRDTVFQGYVIPKGTVVIPTLDSLLYDSHEFPDPEKFKPEHFLNENGKFKYSDYFKAFSAGKRVCVGEGLARMELFLLLSAILQHFNLKSLVDPKDIDLSPVTVGFGSIPPQFKLCVIPRS |  |  |  |  | 100 (31 to 2600) μM | 2.1 (0.010 to 5.2) μM | 28 (24 to 34) μM | 940 (880 to 1000) pmol/min/pmol CYP2E1 |
